# According to publication PMC9352680, “A comprehensive thermodynamic model for RNA binding by the Saccharomyces cerevisiae Pumilio protein PUF4”:
# Target: T1, PUF4 RNA-binding domain (Saccharomyces cerevisiae, UniProt P25339 537-888)
# T1 sequence: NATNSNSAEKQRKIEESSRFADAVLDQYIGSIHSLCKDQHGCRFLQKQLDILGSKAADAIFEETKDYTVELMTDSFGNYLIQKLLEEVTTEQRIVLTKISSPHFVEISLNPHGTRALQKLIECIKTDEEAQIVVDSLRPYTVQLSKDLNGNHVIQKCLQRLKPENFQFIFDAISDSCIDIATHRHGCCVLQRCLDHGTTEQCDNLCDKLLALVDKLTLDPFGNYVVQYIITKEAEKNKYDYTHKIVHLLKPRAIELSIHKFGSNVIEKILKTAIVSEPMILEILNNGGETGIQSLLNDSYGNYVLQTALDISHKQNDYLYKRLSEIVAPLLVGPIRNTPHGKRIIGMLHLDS
# Test: Mg; RNA-MaP; 20 mM Na-HEPES pH 7.4, 30 mM KOAc, 0.75 mM MgCl2, 0.1% Tween-20, 5% glycerol, 0.1 mg/mL BSA, 2 mM DTT; 25 C; 0.0125-409.6 nM protein
# Conditions: tags: N-His6-TEV cleaved; C-SNAP kept, Cy3B-labelled; label: tethered on chip by stalled RNA polymerase
row,Binder,Kd
1,UCUCUUCGUGUAUUAUUAGUUCUCUU (ssRNA) [Id_ii_S1_P5E.2_K5.1_C5.2_[T-1G]_H5.1_A5.1_F5.1_T5.2_[T11G]_[A12T]],3.02 nM
2,UCUCUUGCUAUAUUAUUACAUCUCUU (ssRNA) [Id_ii_S1_P5E.3_K5.2_C5.2_[C-2G]_[T-1C]_H5.2_A5.1_F5.1_T5.2_[T11C]],509 nM
3,UCUCUUUGUAUAUUAUUAUUUCUCUU (ssRNA) [Id_ii_S1_P5E.3_K5.2_C5.2_[C-2T]_[T-1G]_H5.2_A5.1_F5.1_T5.2_[A12T]],0.826 nM
4,UCUCUUGCUAUAUUAUUAAUUCUCUU (ssRNA) [Id_ii_S1_P5E.3_K5.2_C5.2_[C-2G]_[T-1C]_H5.2_A5.1_F5.1_T5.2_[T11A]_[A12T]],343 nM
5,UCUCUUUGUAUAUUAUUAACUCUCUU (ssRNA) [Id_ii_S1_P5E.3_K5.2_C5.2_[C-2T]_[T-1G]_H5.2_A5.1_F5.1_T5.2_[T11A]_[A12C]],0.55 nM
6,UCUCUUUGUAUGGUAUCUCUU (ssRNA) [Ib_S1_P4E.1_K4.1_C4.1_H4.1_A4.1_[A6G]_[T7G]_F4.1_T4.1],14.6 nM
7,UCUCUUUGUAUAUUAUUAUCUCUCUU (ssRNA) [Id_ii_S1_P5E.3_K5.2_C5.2_[C-2T]_[T-1G]_H5.2_A5.1_F5.1_T5.2_[A12C]],0.576 nM
8,UCUCUUUCUAUAUUAUUAAAUCUCUU (ssRNA) [Id_ii_S1_P5E.3_K5.2_C5.2_[C-2T]_[T-1C]_H5.2_A5.1_F5.1_T5.2_[T11A]],557 nM
9,UCUCUUCAUGUAUUAUUAGUUCUCUU (ssRNA) [Id_ii_S1_P5E.2_K5.1_C5.2_[T-1A]_H5.1_A5.1_F5.1_T5.2_[T11G]_[A12T]],3.5 nM
10,UCUCUUCGUGUAUUAUUAUCUCUCUU (ssRNA) [Id_ii_S1_P5E.2_K5.1_C5.2_[T-1G]_H5.1_A5.1_F5.1_T5.2_[A12C]],7.38 nM
11,UCUCUUCUUGUAUUAUUAUCUCUCUU (ssRNA) [Id_ii_S1_P5E.2_K5.1_C5.2_H5.1_A5.1_F5.1_T5.2_[A12C]],5.07 nM
12,UCUCUUGUUAUAUUAUUAUCUCUCUU (ssRNA) [Id_ii_S1_P5E.3_K5.2_C5.2_[C-2G]_H5.2_A5.1_F5.1_T5.2_[A12C]],16.3 nM
13,UCUCUUCGUGUAUUAUUAAAUCUCUU (ssRNA) [Id_ii_S1_P5E.2_K5.1_C5.2_[T-1G]_H5.1_A5.1_F5.1_T5.2_[T11A]],15 nM
14,UCUCUUCAUGUAUUAUUAUUUCUCUU (ssRNA) [Id_ii_S1_P5E.2_K5.1_C5.2_[T-1A]_H5.1_A5.1_F5.1_T5.2_[A12T]],9.94 nM
15,UCUCUUGCUAUAUUAUUAACUCUCUU (ssRNA) [Id_ii_S1_P5E.3_K5.2_C5.2_[C-2G]_[T-1C]_H5.2_A5.1_F5.1_T5.2_[T11A]_[A12C]],346 nM
16,UCUCUUUCUAUAUUAUUACCUCUCUU (ssRNA) [Id_ii_S1_P5E.3_K5.2_C5.2_[C-2T]_[T-1C]_H5.2_A5.1_F5.1_T5.2_[T11C]_[A12C]],388 nM

row,Binder,Kd
1,UCUCUUCUUGUAUUAUUAAUUCUCUU (ssRNA) [Id_ii_S1_P5E.2_K5.1_C5.2_H5.1_A5.1_F5.1_T5.2_[T11A]_[A12T]],8.8 nM
2,UCUCUUCCUGUAUUAUUAUCUCUCUU (ssRNA) [Id_ii_S1_P5E.2_K5.1_C5.2_[T-1C]_H5.1_A5.1_F5.1_T5.2_[A12C]],6.56 nM
3,UCUCUUCGUGUAUUAUUAAGUCUCUU (ssRNA) [Id_ii_S1_P5E.2_K5.1_C5.2_[T-1G]_H5.1_A5.1_F5.1_T5.2_[T11A]_[A12G]],14.8 nM
4,UCUCUUGUUAUAUUAUUACUUCUCUU (ssRNA) [Id_ii_S1_P5E.3_K5.2_C5.2_[C-2G]_H5.2_A5.1_F5.1_T5.2_[T11C]_[A12T]],13.4 nM
5,UCUCUUAUUGUAUUAUUAUUUCUCUU (ssRNA) [Id_ii_S1_P5E.2_K5.1_C5.2_[C-2A]_H5.1_A5.1_F5.1_T5.2_[A12T]],5.93 nM
6,UCUCUUUGUAUAUUAUUAGCUCUCUU (ssRNA) [Id_ii_S1_P5E.3_K5.2_C5.2_[C-2T]_[T-1G]_H5.2_A5.1_F5.1_T5.2_[T11G]_[A12C]],0.703 nM
7,UCUCUUGCUAUAUUAUUACGUCUCUU (ssRNA) [Id_ii_S1_P5E.3_K5.2_C5.2_[C-2G]_[T-1C]_H5.2_A5.1_F5.1_T5.2_[T11C]_[A12G]],549 nM
8,UCUCUUCUUGUAUUAUUAUGUCUCUU (ssRNA) [Id_ii_S1_P5E.2_K5.1_C5.2_H5.1_A5.1_F5.1_T5.2_[A12G]],5.83 nM
9,UCUCUUUGUAUGCUAUCUCUU (ssRNA) [Ib_S1_P4E.1_K4.1_C4.1_H4.1_A4.1_[A6G]_[T7C]_F4.1_T4.1],7.91 nM
10,UCUCUUCCUGUAUUAUUAAAUCUCUU (ssRNA) [Id_ii_S1_P5E.2_K5.1_C5.2_[T-1C]_H5.1_A5.1_F5.1_T5.2_[T11A]],18.8 nM
11,UCUCUUCCUGUAUUAUUAAUUCUCUU (ssRNA) [Id_ii_S1_P5E.2_K5.1_C5.2_[T-1C]_H5.1_A5.1_F5.1_T5.2_[T11A]_[A12T]],6.56 nM
12,UCUCUUGCUAUAUUAUUAUCUCUCUU (ssRNA) [Id_ii_S1_P5E.3_K5.2_C5.2_[C-2G]_[T-1C]_H5.2_A5.1_F5.1_T5.2_[A12C]],307 nM
13,UCUCUUUGUAAAAUAUCUCUU (ssRNA) [Ic_S1_P4E.1_K4.1_C4.1_H4.1_A4.1_[T5A]_[T7A]_F4.1_T4.1],3.38 nM
14,UCUCUUGUUAUAUUAUUACCUCUCUU (ssRNA) [Id_ii_S1_P5E.3_K5.2_C5.2_[C-2G]_H5.2_A5.1_F5.1_T5.2_[T11C]_[A12C]],9 nM
15,UCUCUUUGUAUAUUAUUAAAUCUCUU (ssRNA) [Id_ii_S1_P5E.3_K5.2_C5.2_[C-2T]_[T-1G]_H5.2_A5.1_F5.1_T5.2_[T11A]],0.467 nM
